{"source": "paper doi:10.1101/2023.02.19.529116", "about": "(bioRxiv, 2023)", "binders": {"B1": {"name": "Smaug 73-278Δ156-196 (Smaug part of the single-chain construct) (domain or fragment, Drosophila, UniProt Q23972 73-278, looked up)", "chain": "LFCEQVTTVTNLFEKWNDCERTVVMYALLKRLRYPSLKFLQYSIDSNLTQNLGTSQTNLSSVVIDINANNPVYLQNLLNAYKTARKEDILHEVLNMLPLLKPGNEEAKLIYLTLIPVAVKDTMQQIVPTELVQQIFSYLLIHPAITSEDRRSLNIWLRHLEDHIQ"}, "B2": {"name": "Smaug 70-281 (domain or fragment, Drosophila, UniProt Q23972 70-281, looked up)", "chain": "SNALFCEQVTTVTNLFEKWNDCERTVVMYALLKRLRYPSLKFLQYSIDSNLTQNLGTSQTNLSSVVIDINANNPVYLQNLLNAYKTFQPCDLLDAMSSSSSDKDSMPCYGSDFQITTSAQCDERKLYARKEDILHEVLNMLPLLKPGNEEAKLIYLTLIPVAVKDTMQQIVPTELVQQIFSYLLIHPAITSEDRRSLNIWLRHLEDHIQAAA"}, "B3": {"name": "Smoothened 970-1003 synthetic peptide (peptide, UniProt P91682 970-1003, looked up)", "peptide": "VPSYGEDELQQAMRLLNAASRQRTEAANEDFGGT"}, "B4": {"name": "His-Hs-SAMD4A 2-156 (domain or fragment, human, UniProt Q9UPU9 2-156, looked up)", "chain": "MFRDQVGVLAGWFKGWNECEQTVALLSLLKRVSQTQARFLQLCLEHSLADCAELHVLEREANSPGIINQWQQESKDKVISLLLTHLPLLKPGNLDAKVEYMKLLPKILAHSIEHNQHIEESRQLLSYALIHPATSLEDRSALAMWLNHLEDRTST"}}, "key": {"[1]": {"target": "B1", "assay": "crystal structure"}, "crystal structure [2]": {"target": "the molecule itself", "assay": "crystal structure"}, "[3]": {"target": "B3", "assay": "ITC"}, "Smaug 70-281": {"target": "B2", "assay": "ITC"}, "crystal structure [4]": {"target": "the molecule itself", "assay": "crystal structure", "remark": "listed apart in the source"}}}
{"binder": "VPSYGEDELQQAMRLLNAASRQRTEAANEDFGGT (peptide, UniProt P91682 970-1003, looked up)", "note": "[Smo 970-1003 (Smoothened part of the single-chain construct)]", "values": [{"measurement": "binding result", "setting": "[1]", "value": "binds"}]}
{"binder": "B1", "values": [{"measurement": "binding result", "setting": "crystal structure [2]", "value": "binds"}]}
{"binder": "B2", "values": [{"measurement": "stoichiometry N", "setting": "[3]", "value": 1}]}
{"binder": "B3", "values": [{"measurement": "Kd", "setting": "Smaug 70-281", "value": 0.8, "unit": "µM"}]}
{"binder": "B4", "values": [{"measurement": "stoichiometry N", "setting": "crystal structure [4]", "value": 2}]}
